Results from US20110294728, “Antiviral Polypeptides” (published 2011).

Legend:
[1] = target: HIV-1 reverse transcriptase p66/p51 in complex with PAW peptide (HIV-1 (BH10), UniProt P03366;P03366 P03366:600-1159,P03366:600-1039); assay: steady-state fluorescence quenching; 10 uM PAW; 50 mM Tris-HCl pH 8.0, 50 mM KCl, 10 mM MgCl2, 25 C; details: protein: synthetic; label: 6-FAM at primer 3' end; primer/template with 5' single-stranded template overhang
[2] = target: HIV-1 reverse transcriptase p66/p51 heterodimer (HIV-1 (BH10), UniProt P03366;P03366 P03366:600-1159,P03366:600-1039); assay: steady-state fluorescence quenching; 50 mM Tris-HCl pH 8.0, 50 mM KCl, 10 mM MgCl2, 1 mM DTT, 25 C; details: tags: recombinant from E. coli; His-tagged and untagged preparations described, form used in the titration not specified; label: 6-FAM at primer 3' end; primer/template with 5' single-stranded template overhang
[3] = target: HIV-1 reverse transcriptase p66/p51 in complex with FITC-PAW (HIV-1 (BH10), UniProt P03366;P03366 P03366:600-1159,P03366:600-1039); assay: quenching of FITC-PAW pre-bound to RT on titration with unlabelled p/t; 10 mM MgCl2, 25 C; details: tags: PAW with C-terminal Cys-FITC; primer/template with 5' single-stranded template overhang

B1: 19/36-mer DNA/DNA primer/template (HIV-1 PBS) (dsDNA)
DNA 1: TCCCTGTTCGGGCGCCACT
DNA 2: TGTGGAAAATCTCATGCAGTGGCGCCCGAACAGGGA
What does the source list for B1?
Kd [1]: 99 nM; Kd [2]: 22 nM

B2: 19/36-mer (printed 18/36) DNA/DNA primer/template, unlabelled (dsDNA)
DNA 1: TCCCTGTTCGGGCGCCACT
DNA 2: TGTGGAAAATCTCATGCAGTGGCGCCCGAACAGGGA
How did the Kd [3] turn out when B2 was run?
Its Kd is 66.5 nM.
